PMC7525159

Target: T1, RegX3 (K204A) K204A (UniProt P9WGL9)
T1 sequence: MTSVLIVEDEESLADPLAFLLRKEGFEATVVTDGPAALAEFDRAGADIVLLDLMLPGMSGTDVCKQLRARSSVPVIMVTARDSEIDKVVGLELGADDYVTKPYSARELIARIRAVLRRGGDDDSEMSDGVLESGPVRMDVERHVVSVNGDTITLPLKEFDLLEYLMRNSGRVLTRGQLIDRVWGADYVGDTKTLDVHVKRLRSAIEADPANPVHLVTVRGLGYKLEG
Test: EMSA

## CAGCTTTCTTTGCGCTAATTTAGGCGTACTCACAGCATGGGATGACCTGGGCAAATACCTCATCTATCCGCCCGGGATAGCATGCGGCGCAGGCGGCGAATGCGGCGCAGATGAACGCAGAGTTAATTCTCACGCAACGGTCCGATATTG (double strand) [whiB3 promoter -307 to -157 (WT)]
  binding: no binding
